Experimental data: patent US12331324B2, “Versatile peroxidases and uses thereof” (Yeda Research and Development Co. Ltd., priority 2021, dated 2025)

How the values were obtained:
[1] = substrate: COc1cccc(OC)c1O; assay: purified protein, by the assay type; conditions: optimum pH, 25° C., 0.4 mM H2O2
Method: (§5) VPs production and purification. […] An aliquot of cells was removed and used to inoculate 100 mL of minimal medium in a 1 L flask to an OD600 nm of 0.25-0.30, under the same conditions. The cells completed two growth phases (8-10 hours, reaching OD600 nm˜1-1.5), then the expression medium (450 mL) was inoculated with 50 mL of the pre-culture in a 2 L flask (OD600 nm˜0.1). Cells were incubated for a further ˜60 hours at 30° C. and 225 rpm. Thereafter, cells were centrifuged at 6000 g for 15 min at 4° C., and the supernatant was collected and filtered with a 0.2 μm filter bottle.
(§6) The reaction mixtures contained a specific substrate in 100 mM citrate-phosphate-borate buffer (pH 2, 3, 3.5, 4, 5, 6, 7, 8) and 0.1 mM H2O2. […] The following substrate concentrations and absorption wavelengths were used: ABTS: 2 mM, 418 nm; DMP: 5 mM, 469 nm; RB5: 0.05 mM, 598 nm; VA: 30 mM, 310 nm.

[2] = substrate: OO; assay: purified protein, by the assay type; conditions: other: H2O2 kinetics with 2 mM ABTS, optimum pH for ABTS, 25° C.
Method: as §5, §6

[3] = substrate: COc1ccc(CO)cc1OC; assay: purified protein, by the assay type; conditions: other: VA, RB5, optimum pH, 25° C., 0.4 mM H2O2
Method: as §5, §6

[4] = substrate: CCn1c(=NN=c2sc3cc(S(=O)(=O)O)ccc3n2CC)sc2cc(S(=O)(=O)O)ccc21; assay: purified protein, by the assay type; conditions: optimum pH, 25° C., 0.4 mM H2O2
Method: as §5, §6

[5] = substrate: Nc1c(N=Nc2ccc(S(=O)(=O)CCOS(=O)(=O)O)cc2)c(S(=O)(=O)O)cc2cc(S(=O)(=O)O)c(N=Nc3ccc(S(=O)(=O)CCOS(=O)(=O)O)cc3)c(O)c12; assay: purified protein, by the assay type; conditions: other: VA, RB5, optimum pH, 25° C., 0.4 mM H2O2
Method: as §5, §6

[6] = substrate: COc1cccc(OC)c1O; assay: Steady-state kinetics (Michaelis-Menten) of purified VP design 11H with peroxidase substrates; assay type: biochemical, Pleurotus ostreatus; conditions: optimum pH, 25° C., 0.1 mM H2O2
Method: (§1) VPs production and purification. A colony from S. cerevisiae clone containing the VP gene (5H, 8H, 11H, VPL_R4, VPL_2-1B) was picked from an SC drop-out plate, inoculated in 25 mL minimal medium in a 250 flask, and incubated for 48 hours at 30° C. and 225 rpm. An aliquot of cells was removed and used to inoculate 100 mL of minimal medium in a 1 L flask to an OD600 nm of 0.25-0.30, under the same conditions. The cells completed two growth phases (8-10 hours, reaching OD600 nm˜1-1.5), then the expression medium (450 mL) was inoculated with 50 mL of the pre-culture in a 2 L flask (OD600 nm˜0.1). Cells were incubated for a further ˜60 hours at 30° C. and 225 rpm. Thereafter, cells were centrifuged at 6000 g for 15 min at 4° C., and the supernatant was collected and filtered with a 0.2 μm filter bottle.
(§2) Filtrates were subjected to fractional precipitation with ammonium sulfate in two steps: first cut of 50%, followed by centrifugation and elimination of the precipitates, and the second cut of 70%. Buffer A was used to dissolve the pellet, and the dissolved protein solution was shaken overnight at 4° C. for maximal recovery. The dissolved fraction was then centrifuged, filtrated, concentrated, and subjected to overnight dialysis against buffer A. Filtered fractions of the VP proteins after dialysis were uploaded into a HiTrap™ Q HP Column (GE Healthcare Bio-Sciences AB, Uppsala, Sweden) pre-equilibrated with buffer A, through ÄKTA pure protein purification system (GE Healthcare Bio-Sciences AB). Proteins were eluted in a two-step linear gradient from 0 to 1 M NaCl, at a flow rate of 1 ml/min: the first phase of 0-25% over 15 column volumes (75 min) and second phase of 25-100% over 2 column volumes (10 min). The fractions of the peak with the highest VP activity (and absorption at 407 nm) were pooled, concentrated, and dialyzed against 20 mM piperazine buffer pH=5.5 and 150 mM NaCl (buffer B). Protein fractions were then uploaded onto a Superdex 75 Increase 10/300 GL (GE Healthcare Bio-Sciences AB) through the ÄKTA pure system pre-equilibrated with buffer B. The fractions of the peak with the highest VP activity (and absorption at 407 nm) were pooled and dialyzed against buffer A. Pure protein samples were stored at 4° C. Protein concentration was determined using the BCA assay with bovine serum albumin as a standard. The obtained Reinheitszahl values (Rz: Abs407 nm/Abs280 nm), which indicate for the purity of peroxidases, were 1 for 8H (due to high tryptophan content) and above 2 for 5H, 11H, R4 and 2-1B.
(§3) pH activity profiles. For purified 5H, 8H, 11H, and R4, 20 μL protein samples (diluted in buffer A) were transferred into activity 96 plates (in the case of VA and MnSO4, UV-Star plates; Greiner Bio-One GmbH, Kremsmünster, Austria) and then, 180 μL of the reaction mixture were added to each row in the plate, and absorption at the appropriate wavelength (substrate-dependent) was recorded immediately in a kinetic mode in a plate-reader at 25° C. The reaction mixtures contained a specific substrate in 100 mM citrate-phosphate-borate buffer (pH 2, 3, 3.5, 4, 5, 6, 7, 8) and 0.1 mM H2O2. The activities were recorded in triplicate. The following substrate concentrations and absorption wavelengths were used: ABTS: 2 mM, 418 nm; DMP: 5 mM, 469 nm; RB5: 0.05 mM, 598 nm; VA: 30 mM, 310 nm. For manganese, the reaction mixtures contained 60 mM MnSO4 in 100 mM sodium tartrate buffer (pH 3, 3.5, 4, 4.5, 5) and 0.1 mM H2O2, and the Mn^3+-tartrate complex absorption was read at 238 nm. For each protein and substrate, the activities were normalized to the activity at optimal pH for residual activity calculations. Each activity assay was conducted in triplicate.
(§4) Kinetic parameters. Steady-state kinetics were determined for 5H, 8H, 11H and R4, by measuring the activity (initial rates) in increasing concentrations of the substrate, and the KM and Kcat values were calculated by fitting the results to the Michaelis-Menten model (V0=KcatES/(KM+S)). […]

[7] = substrate: OO; assay: as above; assay type: biochemical, Pleurotus ostreatus; conditions: other: H2O2 kinetics with 2 mM ABTS, optimum pH for ABTS, 25° C.
Method: as §1, §2, §3, §4

[8] = substrate: COc1ccc(CO)cc1OC; assay: as above; assay type: biochemical, Pleurotus ostreatus; conditions: other: VA, RB5, optimum pH, 25° C., 0.1 mM H2O2
Method: as §1, §2, §3, §4

[9] = substrate: CCn1c(=NN=c2sc3cc(S(=O)(=O)O)ccc3n2CC)sc2cc(S(=O)(=O)O)ccc21; assay: as above; assay type: biochemical, Pleurotus ostreatus; conditions: optimum pH, 25° C., 0.1 mM H2O2
Method: as §1, §2, §3, §4

[10] = substrate: Nc1c(N=Nc2ccc(S(=O)(=O)CCOS(=O)(=O)O)cc2)c(S(=O)(=O)O)cc2cc(S(=O)(=O)O)c(N=Nc3ccc(S(=O)(=O)CCOS(=O)(=O)O)cc3)c(O)c12; assay: as above; assay type: biochemical, Pleurotus ostreatus; conditions: other: VA, RB5, optimum pH, 25° C., 0.1 mM H2O2
Method: as §1, §2, §3, §4

B1: Pleurotus ostreatus versatile peroxidase VP5, designed variant 5H, SEQ ID NO: 1 (wild type SEQ ID NO: 4; mutations A11S, V15T, A17S, A19E, P26D, D38G, A40Q, … (protein)
chain: VSLPQKRATCSGGQTTSNEACCVLFDLMEDLQKNLFDGGQCGEQAHEALRLTFHDAIGFSPSRGVMGGADGSVITFSDIETNFPANLGIDDIVEAEKSFLQRHNISAGDLVHFAATLAVTNCPGAPRIPFFLGRPPATAPSPPGLVPEPFDSVTDILARMADAGFSPVEVVWLLSAHSVAAADHVDPTIPGTPFDSTPNLFDSQFFIETQLRGTTFPGTGGNPGEVKSPLPGEMRLQSDHLFARDPRTACEWQSMVNDQQKIQDRFRDTLFKMSMLGQNQDDMIDCSDVIPVPPPLTTKPHLPAGKSKTDVEQACATAPFPTLPADPGPPTSVPPVPPA
B1 was tested, and the Km ([1]; other: high efficiency site) was 85.7 ± 16.9 µM, the kcat ([1]; other: high efficiency site) was 1.2 ± 0.1 s⁻¹ and the kcat/Km ([1]; other: high efficiency site) was 14400 ± 3000 M⁻¹ s⁻¹. For the same protein, the Km ([1]; other: low efficiency site) was 27,700 ± 7,100 μM, the kcat ([1]; other: low efficiency site) was 5.4 ± 0.6 s⁻¹ and the kcat/Km ([1]; other: low efficiency site) was 190 ± 50 M⁻¹ s⁻¹. For the same protein, the Km [2] was 197 ± 20 µM, the kcat [2] was 20.3 ± 0.8 s⁻¹ and the kcat/Km [2] was 103000 ± 11000 M⁻¹ s⁻¹. It also gave a Km [3] of 158 ± 27 µM, a kcat [3] of 0.52 ± 0.02 s⁻¹ and a kcat/Km [3] of 3300 ± 600 M⁻¹ s⁻¹. The Km ([4]; other: high efficiency site) was 1.9 ± 0.4 µM, the kcat ([4]; other: high efficiency site) was 1.5 ± 0.1 s⁻¹ and the kcat/Km ([4]; other: high efficiency site) was 763000 ± 151000 M⁻¹ s⁻¹. The Km ([4]; other: low efficiency site) was 765 ± 96 µM, the kcat ([4]; other: low efficiency site) was 33.2 ± 1.8 s⁻¹ and the kcat/Km ([4]; other: low efficiency site) was 43400 ± 5900 M⁻¹ s⁻¹. It also gave a Km [5] of 2.9 ± 1.0 µM, a kcat [5] of 0.18 ± 0.04 s⁻¹ and a kcat/Km [5] of 62300 ± 25200 M⁻¹ s⁻¹.

B2: Pleurotus ostreatus versatile peroxidase VP11, designed variant 11H, SEQ ID NO: 3 (wild type SEQ ID NO: 6; mutations A11S, V15T, A17S, P26D, I27L, L28R, E29D, … (protein)
chain: VTLPQKRATCSGGQTTSNAACCVLFDLRDDLQKNLFDGGQCGEEVHESLRLTFHDAIGFSPTKGGGGADGSVLIFSDTELNFPANLGIDEIVEAQKPFLQRHNISAGDLVQFAGALGVSNCPGAPRIPFFLGRPPATAPSPDGLVPEPFDSVDDILARMADAGFSPVEVVWLLSSHTIAAADHVDPTIPGTPFDSTPSIFDSQFFIETQLRGTLFPGTGGNPGEVESPLPGEIRLQSDHLLARDPRTACEWQSMVDNMPKIQNRFAATMLKMSLLGQNVRDLIDCSDVIPTPPPLVGTAHLPAGKTQSDVEQACATTPFPTIPADPGPVTSVPPVPPS
Work on B2 yielded a Km ([6]; other: high efficiency site) of 168 ± 10 µM, a kcat ([6]; other: high efficiency site) of 1.91 ± 0.04 s⁻¹ and a kcat/Km ([6]; other: high efficiency site) of 11400 ± 700 M⁻¹ s⁻¹. For the same protein, the Km ([6]; other: low efficiency site) was 11,400 ± 2,000 μM, the kcat ([6]; other: low efficiency site) was 6.3 ± 0.4 s⁻¹ and the kcat/Km ([6]; other: low efficiency site) was 550 ± 100 M⁻¹ s⁻¹. For the same protein, the Km [7] was 38.9 ± 6.9 µM, the kcat [7] was 7 ± 0.5 s⁻¹ and the kcat/Km [7] was 180000 ± 35000 M⁻¹ s⁻¹. For the same protein, the Km [8] was 2,000 ± 100 μM, the kcat [8] was 1.38 ± 0.03 s⁻¹ and the kcat/Km [8] was 680 ± 50 M⁻¹ s⁻¹. The Km ([9]; other: high efficiency site) was 6.3 ± 0.7 µM, the kcat ([9]; other: high efficiency site) was 2.0 ± 0.1 s⁻¹ and the kcat/Km ([9]; other: high efficiency site) was 314000 ± 37000 M⁻¹ s⁻¹. For the same protein, the Km ([9]; other: low efficiency site) was 1,100 ± 90 μM, the kcat ([9]; other: low efficiency site) was 11.2 ± 0.3 s⁻¹ and the kcat/Km ([9]; other: low efficiency site) was 10300 ± 900 M⁻¹ s⁻¹. The Km [10] was 2.0 ± 0.2 µM, the kcat [10] was 0.3 ± 0.01 s⁻¹ and the kcat/Km [10] was 152000 ± 20000 M⁻¹ s⁻¹.
